Reference: the supplement of paper PMC10126150
± gives the standard deviation of the averaged measurements.

System: ATP
Test: switch fluorescence ratio, 500 uM ATP over buffer (Cy3 cluster intensity, sum of 5 cycles each) (fold (ratio)); higher = stronger signal-on switching upon ATP binding; sequences stand for … in TCGTCGGCAGCGTCAGATGTGTATAAGAGACAGTTTTTTTTTTTTTTTTTTTTTTTTT…TC
Details: aptamer strand: ATP DNA aptamer (quencher-CACCTGGGGGAGTATTGCGGAGGAAGG + anchor), 100 nM annealed; ATP concentration: 500 uM
In short: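 Cy3-labelled switching-strand clusters on a modified Illumina MiSeq flow-cell were annealed to 100 nM quencher-labelled ATP aptamer and imaged first in selection buffer, then after 15 min with 500 uM ATP at 22 °C. NaOH stripping and re-annealing separated each of five buffer/ATP cycles, and clusters outside 100-1000 RFU were excluded. The fluorescence ratio sums target-cycle Cy3 intensity over buffer-cycle Cy3 intensity per cluster and averages it per switch-domain sequence.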
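Further: ATP exposure 15 min at 22 °C before imaging.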

Sequence | switch fluorescence ratio
TTGGGACGTC | 1.02 ± 0.048
TCGGGTCTAC | 1.01 ± 0.018
ATGGGGCTGA | 0.993 ± 0.029
TTTCGGGGAA | 1.06 ± 0.1
AGACGTCCCA | 1.02 ± 0.022
TACTGGCTGT | 1.01 ± 0.029
AGGGAAACTA | 0.999 ± 0.013
TACCTCATGG | 1.01 ± 0.054
GGTTATTGGG | 0.98 ± 0.075
GAGGGAGGCT | 1.04 ± 0.015
GATATTCTTT | 0.988 ± 0.018
TTTAGGGCGC | 1.05 ± 0.044
TTAAGGCGGA | 1.04 ± 0.023
GATGAGTTGA | 0.988 ± 0.02
GGCTAGTACT | 1.01 ± 0.011
GGGATTAAAG | 1.02 ± 0.017
CAAAAGGAAA | 0.992 ± 0.022
CTGGATCCTG | 1.02 ± 0.053
GGAAATCACA | 1.01 ± 0.029
GTCGTAGCTT | 1.058 ± 0.0089
GAATGGTAGT | 1.025 ± 0.0078
GTGCGGGGCG | 1.02 ± 0.067
TTGGTTCGC | 0.994 ± 0.094

Sequence | switch fluorescence ratio
TTCGGGACGC | 1.03 ± 0.053
ACATTAAGTA | 1.02 ± 0.037
ATTTCCCTGT | 1.01 ± 0.044
GGATGTTTAG | 1.02 ± 0.021
ACAAACTGGT | 1 ± 0.019
TCGTCGTGTG | 1 ± 0.028
ACATGAAGGT | 1.006 ± 0.0035
AGTATTGGGC | 1.008 ± 0.01
CTAATTTGCT | 1.04 ± 0.056
TTTTGTCGTG | 0.95 ± 0.033
AAGCGGAGGG | 1.02 ± 0.062
ACGGGGAGGC | 1.07 ± 0.028
GGGCGTACGG | 1.06 ± 0.045
GGTATTTGTA | 0.991 ± 0.031
GAGATATACT | 1.06 ± 0.017
ACTCGGGTAC | 1.79 ± 0.15
AGGGAAATAA | 0.987 ± 0.026
TCCGGTATCG | 1.04 ± 0.016
TTCAGCGGGT | 0.983 ± 0.025
GCCAGGCATT | 0.989 ± 0.05
CAAAGCTTGA | 1.01 ± 0.036
TTCTTTGGGG | 1.04 ± 0.093
CGGGGGTTGA | 1.03 ± 0.03

Sequence | switch fluorescence ratio
AATTGTATAG | 0.9913 ± 0.0062
AGTGTGAGCT | 1 ± 0.037
GTTATAGCTA | 0.9859 ± 0.0061
AACAGTGTAT | 1.01 ± 0.03
TGTGTTATAC | 1.05 ± 0.043
AGTTGGGCAT | 0.995 ± 0.017
GGGGGGAAAG | 0.98 ± 0.029
ATGAGTGGTG | 1.019 ± 0.0077
TTGGTTTAGA | 0.979 ± 0.028
CAGGATTGGC | 1.07 ± 0.019
AAAGGGGGGA | 0.995 ± 0.029
GAATCGATAC | 1.76 ± 0.084
TCGCCCGCGA | 1.51 ± 0.063
CAATGGTTAG | 0.998 ± 0.026
GCTAAAAGTT | 0.995 ± 0.021
CGGTGAGGAC | 0.98264 ± 0.00074
TGGGGTTAGG | 1 ± 0.024
CCGTACGGGG | 1.029 ± 0.0055
CGAGTATGGA | 0.9923 ± 0.0042
GGAGAGGCAG | 0.975 ± 0.026
GTGTTTAAGT | 0.962 ± 0.014
GGTAACCTTT | 1.43 ± 0.58
CAGCTAGTCC | 1.176 ± 0.0035

Sequence | switch fluorescence ratio
TATTCATTTG | 1.027 ± 0.0068
CGTGGGTTCG | 0.961 ± 0.025
TCGTGGGGAG | 0.982 ± 0.015
GAATATAGTG | 1.02 ± 0.011
TTATGTTCGA | 1.018 ± 0.005
CAGATAGACG | 1.04 ± 0.036
GAAACTGGGG | 1.02 ± 0.031
AGGCTTGCGC | 1.01 ± 0.037
CGTGCGCATA | 3.77 ± 1.4
AGGGGGCGTC | 1.022 ± 0.0093
TGTACGGGGA | 0.995 ± 0.03
GGTAGTCCGG | 1.02 ± 0.054
TCGATAATTT | 0.986 ± 0.022
TAGGGGTTAT | 0.995 ± 0.015
TCAGGGCTAA | 1.02 ± 0.062
AATTGGATCG | 1.016 ± 0.0018
TCTGGCGCCG | 1.03 ± 0.017
GAGTTAAAAG | 1.01 ± 0.02
TAAGGGAAAA | 0.977 ± 0.023
ACATGCGCGG | 0.9999 ± 0.0079
CCAGTATATT | 1.02 ± 0.043
CAGCAAAAAG | 0.985 ± 0.025
GTTGTTTGTA | 0.971 ± 0.021

Sequence | switch fluorescence ratio
AGGTATTCAG | 1.01 ± 0.033
TTCACTTAGC | 1.075 ± 0.0076
GTGTTAGGGT | 0.984 ± 0.035
GTAGGAGGAG | 0.991 ± 0.032
AGCTGACGCT | 1.02 ± 0.025
GGTTTGGGGA | 0.983 ± 0.011
TTTTTGTCAT | 0.9912 ± 0.0094
GTTTTCGGGT | 1.01 ± 0.052
AGGCTGTTCT | 0.991 ± 0.059
AATGAATCGT | 1 ± 0.015
GTGGGGGGTT | 0.993 ± 0.026
AGGTGTAAAT | 1.003 ± 0.0016
CTGGTTAATT | 0.973 ± 0.017
GGTTGTGCTT | 0.995 ± 0.0039
TTGGTAAAAA | 1.25 ± 0.41
TAGCTAGACG | 1.01 ± 0.012
GCAGCGGGGA | 1.04 ± 0.017
TGGGGGTATT | 1.05 ± 0.16
AATTCGCAGT | 1.17 ± 0.23
GGAGGAATTT | 1.01 ± 0.016
ATGAGGCGAA | 1.01 ± 0.011
CTGAACTGTG | 0.989 ± 0.11
AGAAAAGGGG | 1.01 ± 0.054

Sequence | switch fluorescence ratio
GTTCCTTTTT | 1.02 ± 0.064
GAAATGGGGT | 0.977 ± 0.037
TCATTTTTGG | 1 ± 0.012
GCTACTTAGT | 1.02 ± 0.017
TTCGAAGGGC | 1.14 ± 0.16
TAGTTGGGCT | 0.961 ± 0.032
GCGTTAGCGC | 0.968 ± 0.012
CGTTGGGTGG | 1.02 ± 0.076
TTTTAGGGCA | 1 ± 0.018
CGGATTCGAT | 1.01 ± 0.011
CTGCTTGGTT | 1.001 ± 0.0047
TTCCATATCG | 1.03 ± 0.061
GAATTAGAGA | 1.03 ± 0.033
GTGTTTAATT | 1.03 ± 0.035
TAGTTCAGGA | 1.05 ± 0.036
TTTACCTCGA | 1.027 ± 0.0069
TTGGGCAGGG | 0.982 ± 0.036
TGTTATTGAA | 0.992 ± 0.046
CTGTTAGAGA | 1.01 ± 0.014
ACTGATAGAG | 1.02 ± 0.065
ATATCCGCTG | 1.52 ± 0.071
TTCAGGCACG | 0.986 ± 0.049
ATTGCAGCTG | 0.9637 ± 0.0015

Sequence | switch fluorescence ratio
TTAAGCGGCG | 0.992 ± 0.016
CTAGTGTCTC | 0.989 ± 0.025
TTCATTCATT | 0.982 ± 0.015
TGGGTAGGAA | 1.0335 ± 0.00064
CTTTGAAGTT | 1.01 ± 0.029
TTATAACTCA | 0.997 ± 0.034
CGAAATGCGG | 0.982 ± 0.036
ATTAGTAGAT | 0.97 ± 0.013
TCATTTCTGC | 1.01 ± 0.037
GGAAAGAACA | 0.9817 ± 0.0079
TTGGTGTGGG | 0.986 ± 0.045
CGTTAATTTT | 0.983 ± 0.026
TAAGATAAAT | 1 ± 0.021
AGTGGGTAAG | 0.9869 ± 0.0085
GCTTTGGATA | 1.04 ± 0.055
AAGGAGGGAT | 1 ± 0.036
TTTTTACTAT | 1.002 ± 0.0057
AATGGCAATT | 0.995 ± 0.033
AGTTGCGTTA | 0.963 ± 0.025
